The source of these data is IntAct's records for PubMed 22187462.

Sequences and labels used below:
B1: Catenin beta-1 (Homo sapiens), P35222 (parent)
chain: MATQADLMELDMAMEPDRKAAVSHWQQQSYLDSGIHSGATTTAPSLSGKGNPEEEDVDTSQVLYEWEQGFSQSFTQEQVADIDGQYAMTRAQRVRAAMFPETLDEGMQIPSTQFDAAHPTNVQRLAEPSQMLKHAVVNLINYQDDAELATRAIPELTKLLNDEDQVVVNKAAVMVHQLSKKEASRHAIMRSPQMVSAIVRTMQNTNDVETARCTAGTLHNLSHHREGLLAIFKSGGIPALVKMLGSPVDSVLFYAITTLHNLLLHQEGAKMAVRLAGGLQKMVALLNKTNVKFLAITTDCLQILAYGNQESKLIILASGGPQALVNIMRTYTYEKLLWTTSRVLKVLSVCSSNKPAIVEAGGMQALGLHLTDPSQRLVQNCLWTLRNLSDAATKQEGMEGLLGTLVQLLGSDDINVVTCAAGILSNLTCNNYKNKMMVCQVGGIEALVRTVLRAGDREDITEPAICALRHLTSRHQEAEMAQNAVRLHYGLPVVVKLLHPPSHWPLIKATVGLIRNLALCPANHAPLREQGAIPRLVQLLVRAHQDTQRRTSMGGTQQQFVEGVRMEEIVEGCTGALHILARDVHNRIVIRGLNTIPLFVQLLYSPIENIQRVAAGVLCELAQDKEAAEAIEAEGATAPLTELLHSRNEGVATYAAAVLFRMSEDKPQDYKKRLSVELTSSLFRTEPMAWNETADLGLDIGAQGEPLGYRQDDPSYRSFHSGGYGQDALGMDPMMEHEMGGHHPGADYPVDGLPDLGHAQDLMDGLPPGDSNQLAWFDTDL

Variants of B1 are the subject of one assay. As to conditions: with andr_human AR.
Regarding Y306A;K345A;W383A, the “effect of a mutation on the interaction” value is “disrupting interaction strength”.
The same measure, in the same setting: for Y306A the value was “disrupting interaction strength”; for K345A, “disrupting interaction strength”; for W383A, “disrupting interaction strength”.

Variants of B1 are the subject of another assay. The note with it: with NR5A2, O00482-1.
NR5A2, O00482-1, sequence (O00482 whole entry): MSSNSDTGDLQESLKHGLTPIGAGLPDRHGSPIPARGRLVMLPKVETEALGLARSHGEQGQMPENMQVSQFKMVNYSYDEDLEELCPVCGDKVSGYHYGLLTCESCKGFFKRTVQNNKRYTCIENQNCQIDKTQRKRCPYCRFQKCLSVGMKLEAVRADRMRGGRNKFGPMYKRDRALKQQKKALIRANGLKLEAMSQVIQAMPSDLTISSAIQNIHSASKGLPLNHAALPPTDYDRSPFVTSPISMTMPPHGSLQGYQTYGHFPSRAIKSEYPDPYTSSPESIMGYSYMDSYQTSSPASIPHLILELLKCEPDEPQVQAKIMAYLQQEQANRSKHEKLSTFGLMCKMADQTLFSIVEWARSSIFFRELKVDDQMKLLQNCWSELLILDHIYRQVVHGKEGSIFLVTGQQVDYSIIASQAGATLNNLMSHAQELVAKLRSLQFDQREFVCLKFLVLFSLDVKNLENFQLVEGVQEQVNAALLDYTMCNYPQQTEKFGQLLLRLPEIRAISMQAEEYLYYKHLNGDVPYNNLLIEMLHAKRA
Regarding Y306A;K345A;W383A, the “effect of a mutation on the interaction” value is reported as “disrupting interaction strength”.
